This passage reports Peptide exchange results from patent publication US20170002055A1, “Novel peptides and combination of peptides for use in immunotherapy against ovarian cancer and other cancers” (immatics biotechnologies GmbH, priority 2015, published 2017).

The target of the assay is HLA-A*02:01 (Homo sapiens, UniProt P04439, D140Y/D185E/D98H/E176V/E277Q/G131W/G231S/I119V/I121R/I166T/I218V/L300P/L318F/N151K/N90K/P208A/P217A/Q86G/Q94H/R138H/R169H/T345S). The assay is described as follows: MHC binding assay (UV-ligand exchange, β2m ELISA, peptide exchange yield). Particulars: MHC class I binding score; binding to HLA-A*02:01 ranged by peptide exchange yield (UV-ligand exchange, β2m ELISA). In a few lines: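 Peptide–HLA-A*02:01 complexes were formed by UV-mediated exchange of a UV-cleavable ligand for the test peptide. Exchange yield was measured by capturing complexes on streptavidin, detecting with HRP anti-β2m antibody (1 h, 37°C) and reading TMB absorbance at 450 nm.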
In general terms: An ELISA detects its analyte on a solid surface through an enzyme-linked reagent.
Take “553 (SLLNQDLHWSL; listed as Homo sapiens) [compound 553]”: the Peptide exchange entry is on record as ““++++” (≧75% = ++++)”.

In the case of “554 (LLMPSSEDLLL; listed as Homo sapiens) [compound 554]”, the Peptide exchange entry is reported as ““+++” (≧50 = +++)”.

Take “555 (YVLEGLKSV; listed as Homo sapiens) [compound 555]”: the Peptide exchange entry is listed as ““+++” (≧50 = +++)”.

In the case of “556 (FLTDLEDLTL; listed as Homo sapiens) [compound 556]”, the Peptide exchange result is recorded as ““+++” (≧50 = +++)”.

Turning to “557 (KLYDDMIRL; listed as Homo sapiens) [compound 557]”, the Peptide exchange entry was ““+++” (≧50 = +++)”.

Take “558 (GLLENIPRV; listed as Homo sapiens) [compound 558]”: the Peptide exchange result is reported as ““+++” (≧50 = +++)”.

Regarding “559 (VTVPPGPSL; listed as Homo sapiens) [compound 559]”, the Peptide exchange result is ““++” (≧20% = ++)”.

Take “560 (ALWDIETGQQTTT; listed as Homo sapiens) [compound 560]”: the Peptide exchange result was ““+++” (≧50 = +++)”.

On to “561 (YLQLTQSEL; listed as Homo sapiens) [compound 561]”, for which the Peptide exchange result is on record as ““+++” (≧50 = +++)”.

With “562 (YLEELPEKLKL; listed as Homo sapiens) [compound 562]”, the Peptide exchange result is given as ““+++” (≧50 = +++)”.

As to “563 (WLLPYNGVTV; listed as Homo sapiens) [compound 563]”, the Peptide exchange result is ““+++” (≧50 = +++)”.

Turning to “564 (TVTNAVVTV; listed as Homo sapiens) [compound 564]”, the Peptide exchange entry is reported as ““+++” (≧50 = +++)”.

Consider “565 (ALQETPTSV; listed as Homo sapiens) [compound 565]”, for which the Peptide exchange result is given as ““++” (≧20% = ++)”.

With “566 (VIADGGIQNV; listed as Homo sapiens) [compound 566]”, the Peptide exchange result is listed as ““++” (≧20% = ++)”.

As to “567 (SLLPLDDIVRV; listed as Homo sapiens) [compound 567]”, the Peptide exchange entry is listed as ““+++” (≧50 = +++)”.

For the substance “568 (TLYDIAHTPGV; listed as Homo sapiens) [compound 568]”, the Peptide exchange result was ““++++” (≧75% = ++++)”.

In the case of “569 (KLVDRTWTL; listed as Homo sapiens) [compound 569]”, the Peptide exchange entry is on record as ““+++” (≧50 = +++)”.

As for “570 (ALANQIPTV; listed as Homo sapiens) [compound 570]”, the Peptide exchange entry is on record as ““++” (≧20% = ++)”.

With “571 (LLLTTIPQI; listed as Homo sapiens) [compound 571]”, the Peptide exchange entry was ““+++” (≧50 = +++)”.

For the substance “572 (ALADLIEKELSV; listed as Homo sapiens) [compound 572]”, the Peptide exchange result is recorded as ““+++” (≧50 = +++)”.

On to “573 (ILVANAIVGV; listed as Homo sapiens) [compound 573]”, for which the Peptide exchange entry is on record as ““+++” (≧50 = +++)”.

Turning to “574 (YLLQEPPRTV; listed as Homo sapiens) [compound 574]”, the Peptide exchange entry is ““++” (≧20% = ++)”.

On to “575 (YLISQVEGHQV; listed as Homo sapiens) [compound 575]”, for which the Peptide exchange result is given as ““+++” (≧50 = +++)”.

With “576 (ILLNNSGQIKL; listed as Homo sapiens) [compound 576]”, the Peptide exchange entry is reported as ““++++” (≧75% = ++++)”.

“577 (VMFEDGVLMRL; listed as Homo sapiens) [compound 577]”: the Peptide exchange result is ““+++” (≧50 = +++)”.

Take “578 (FLDPGGPMMKL; listed as Homo sapiens) [compound 578]”: the Peptide exchange entry was ““+++” (≧50 = +++)”.

For the substance “579 (NLMEMVAQL; listed as Homo sapiens) [compound 579]”, the Peptide exchange result was ““++” (≧20% = ++)”.

Take “580 (LLMENAERV; listed as Homo sapiens) [compound 580]”: the Peptide exchange entry is on record as ““++” (≧20% = ++)”.

Turning to “582 (TLCDVILMV; listed as Homo sapiens) [compound 582]”, the Peptide exchange result is ““+++” (≧50 = +++)”.

As for “583 (ILANDGVLLAA; listed as Homo sapiens) [compound 583]”, the Peptide exchange entry is recorded as ““+++” (≧50 = +++)”.

As for “584 (ALAEVAAMENV; listed as Homo sapiens) [compound 584]”, the Peptide exchange entry is ““+++” (≧50 = +++)”.

With “585 (ALWDLAADKQTL; listed as Homo sapiens) [compound 585]”, the Peptide exchange result is listed as ““++++” (≧75% = ++++)”.

In the case of “586 (KLKPGDLVGV; listed as Homo sapiens) [compound 586]”, the Peptide exchange entry is on record as ““+++” (≧50 = +++)”.

“587 (VMNDRLYAI; listed as Homo sapiens) [compound 587]”: the Peptide exchange result is on record as ““+++” (≧50 = +++)”.

With “588 (SLLPLSHLV; listed as Homo sapiens) [compound 588]”, the Peptide exchange result was ““+++” (≧50 = +++)”.

For “589 (KLYPQLPAEI; listed as Homo sapiens) [compound 589]”, the Peptide exchange entry is listed as ““+++” (≧50 = +++)”.

With “590 (SLIEKLWQT; listed as Homo sapiens) [compound 590]”, the Peptide exchange result is on record as ““++” (≧20% = ++)”.

Regarding “591 (SMAELDIKL; listed as Homo sapiens) [compound 591]”, the Peptide exchange result is ““+++” (≧50 = +++)”.

As to “592 (RLLSAAENFL; listed as Homo sapiens) [compound 592]”, the Peptide exchange entry was ““+++” (≧50 = +++)”.

As to “593 (GLPRFGIEMV; listed as Homo sapiens) [compound 593]”, the Peptide exchange entry is recorded as ““+++” (≧50 = +++)”.

With “594 (IMLKGDNITL; listed as Homo sapiens) [compound 594]”, the Peptide exchange result is reported as ““+++” (≧50 = +++)”.

In the case of “595 (VLLSIYPRV; listed as Homo sapiens) [compound 595]”, the Peptide exchange entry is on record as ““+++” (≧50 = +++)”.

For the substance “596 (ALLDQTKTLAESAL; listed as Homo sapiens) [compound 596]”, the Peptide exchange result was ““+++” (≧50 = +++)”.

“597 (KLLEGQVIQL; listed as Homo sapiens) [compound 597]”: the Peptide exchange entry is recorded as ““+++” (≧50 = +++)”.

Turning to “598 (FLFPHSVLV; listed as Homo sapiens) [compound 598]”, the Peptide exchange entry is on record as ““+++” (≧50 = +++)”.

As for “599 (YLLNDASLISV; listed as Homo sapiens) [compound 599]”, the Peptide exchange entry is reported as ““+++” (≧50 = +++)”.

With “600 (ALAAPDIVPAL; listed as Homo sapiens) [compound 600]”, the Peptide exchange entry is recorded as ““+++” (≧50 = +++)”.

Take “601 (SAFPFPVTV; listed as Homo sapiens) [compound 601]”: the Peptide exchange result is on record as ““+++” (≧50 = +++)”.

Consider “602 (YLLEQIKLIEV; listed as Homo sapiens) [compound 602]”, for which the Peptide exchange result is given as ““++++” (≧75% = ++++)”.

On to “604 (SILDRDDIFV; listed as Homo sapiens) [compound 604]”, for which the Peptide exchange entry is ““+++” (≧50 = +++)”.

As to “605 (KLYEAVPQL; listed as Homo sapiens) [compound 605]”, the Peptide exchange entry was ““+++” (≧50 = +++)”.

For “606 (ALWETEVYI; listed as Homo sapiens) [compound 606]”, the Peptide exchange entry was ““+++” (≧50 = +++)”.

In the case of “607 (RLYSGISGLEL; listed as Homo sapiens) [compound 607]”, the Peptide exchange entry is listed as ““+++” (≧50 = +++)”.

Consider “608 (SLLSVSHAL; listed as Homo sapiens) [compound 608]”, for which the Peptide exchange result was ““+++” (≧50 = +++)”.

As for “609 (ALWKQLLEL; listed as Homo sapiens) [compound 609]”, the Peptide exchange entry was ““+++” (≧50 = +++)”.

For “610 (LLAPTPYIIGV; listed as Homo sapiens) [compound 610]”, the Peptide exchange result was ““+++” (≧50 = +++)”.

As to “611 (YLLDDGTLVV; listed as Homo sapiens) [compound 611]”, the Peptide exchange result is listed as ““++++” (≧75% = ++++)”.

Consider “612 (YLYNEGLSV; listed as Homo sapiens) [compound 612]”, for which the Peptide exchange result is listed as ““+++” (≧50 = +++)”.

For the substance “613 (RLLPPGAVVAV; listed as Homo sapiens) [compound 613]”, the Peptide exchange result is ““+++” (≧50 = +++)”.

Regarding “614 (LLLPDQPPYHL; listed as Homo sapiens) [compound 614]”, the Peptide exchange entry is ““+++” (≧50 = +++)”.

For “615 (VLPPDTDPA; listed as Homo sapiens) [compound 615]”, the Peptide exchange result is ““++” (≧20% = ++)”.

Consider “616 (VLIDEVESL; listed as Homo sapiens) [compound 616]”, for which the Peptide exchange result is on record as ““+++” (≧50 = +++)”.

On to “617 (ALMYESEKVGV; listed as Homo sapiens) [compound 617]”, for which the Peptide exchange result was ““+++” (≧50 = +++)”.

As to “618 (VLFDSESIGIYV; listed as Homo sapiens) [compound 618]”, the Peptide exchange result was ““+++” (≧50 = +++)”.

In the case of “619 (ALQDRVPLA; listed as Homo sapiens) [compound 619]”, the Peptide exchange entry is on record as ““+++” (≧50 = +++)”.

As for “620 (KLLNKIYEA; listed as Homo sapiens) [compound 620]”, the Peptide exchange entry is given as ““++++” (≧75% = ++++)”.

With “621 (VLMDRLPSLL; listed as Homo sapiens) [compound 621]”, the Peptide exchange result is on record as ““++++” (≧75% = ++++)”.

As for “622 (RLLGEEVVRVLQA; listed as Homo sapiens) [compound 622]”, the Peptide exchange result is given as ““+++” (≧50 = +++)”.

Regarding “623 (YLVEDIQHI; listed as Homo sapiens) [compound 623]”, the Peptide exchange result is reported as ““+++” (≧50 = +++)”.

Regarding “635 (SLDSTLHAV; listed as Homo sapiens) [compound 635]”, the Peptide exchange entry is reported as ““+++” (≧50 = +++)”.
